Test results from patent US20220127355A1 (INTEGRAL MOLECULAR, published 2022).
Positions count from the first letter of the chain named.

T1: T33A
T1 construct: Shotgun Mutagenesis mutant; also called Claudin 6 T33A
T1 chain: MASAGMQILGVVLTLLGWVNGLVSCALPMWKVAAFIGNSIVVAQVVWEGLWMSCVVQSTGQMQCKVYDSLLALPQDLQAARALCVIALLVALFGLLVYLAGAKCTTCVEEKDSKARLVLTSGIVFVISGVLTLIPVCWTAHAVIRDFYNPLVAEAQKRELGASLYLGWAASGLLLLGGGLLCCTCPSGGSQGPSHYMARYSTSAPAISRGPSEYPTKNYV

T2: A153S
T2 construct: Shotgun Mutagenesis mutant; also called Claudin 6 A153S
T2 chain: T1 chain with A33T, A153S

T3: N38A
T3 construct: Shotgun Mutagenesis mutant; also called Claudin 6 N38A
T3 chain: T1 chain with A33T, N38A

T4: Y67A
T4 construct: Shotgun Mutagenesis mutant; also called Claudin 6 Y67A
T4 chain: T1 chain with A33T, Y67A

T5: P74A
T5 construct: Shotgun Mutagenesis mutant; also called Claudin 6 P74A
T5 chain: T1 chain with A33T, P74A

T6: V152A
T6 construct: Shotgun Mutagenesis mutant; also called Claudin 6 V152A
T6 chain: T1 chain with A33T, V152A

T7: E154A
T7 construct: Shotgun Mutagenesis mutant; also called Claudin 6 E154A
T7 chain: T1 chain with A33T, E154A

T8: Q78A
T8 construct: Shotgun Mutagenesis mutant; also called Claudin 6 Q78A
T8 chain: T1 chain with A33T, Q78A

T9: Claudin 3 (UniProt O15551 1-220)
T9 construct: also called CLDN3
T9 sequence (looked up): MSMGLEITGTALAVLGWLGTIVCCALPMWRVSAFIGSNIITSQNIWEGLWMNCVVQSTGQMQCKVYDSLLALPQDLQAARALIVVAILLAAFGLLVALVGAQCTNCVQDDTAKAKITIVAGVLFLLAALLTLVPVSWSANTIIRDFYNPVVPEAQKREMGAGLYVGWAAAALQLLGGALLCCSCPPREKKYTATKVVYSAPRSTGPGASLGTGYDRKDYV

B1: IM173 (antibody, V domains shown)
VH: AVTLDESGGGLQTPGGALSLVCKASGFTFSSYSMFWVRRAPGKGLEWVAGIDSGSTTFYGSAVKGRATISRDNGQSTVRLQLNNLRAEDTATYYCAKDAYGYCGWSGCSADSIDAWGHGTEVIVSS
VL: ALTQPSSVSANPGGTVEITCSGGNNYYGWYQQKSPGSAPVTVIYYNDKRPSDIPSRFSGSKSGSTGTLTITGVQADDEAVYFCGGWDSSGGIFGAGTTLTVL
notes: Detected with anti-human IgG Fc secondary
B2: IM171 (antibody, V domains shown)
VH: AVTLDESGGGLQTPGGALSLVCKASGFDFSSYAMNWVRQAPGKGLEWVAGIGSTGSSTGYGPAVKGRATISRDNGQSTLRLQLNNLRAEDTAIYYCAKSVGNGNSWSGYIATSIDAWGHGTEVIVSS
VL: ALTQPSSVSANLGGTVKLTCSGGSSGYGWYQQKSPGSAPVTVIYSNDKRPSDIPSRFSGSLSGSTGTLTITGVQADDEAVYFCGSTDNSYVGIFGAGTTLTVL
notes: Detected with anti-human IgG Fc secondary; also called LM171

How the values were obtained:
T33A = target: T1, T33A; test: Shotgun Mutagenesis epitope mapping; mean (range), % of wild-type Claudin 6
A153S = target: T2, A153S; test: as above
N38A = target: T3, N38A; test: as above
Y67A = target: T4, Y67A; test: as above
P74A = target: T5, P74A; test: as above
V152A = target: T6, V152A; test: as above
E154A = target: T7, E154A; test: as above
Q78A = target: T8, Q78A; test: as above
Claudin 3 = target: T9, Claudin 3; test: flow cytometry, HEK-293T cells transiently transfected with the indicated claudin; pUC19 = empty vector control
Experimental: FIG. 2 illustrates the results of a binding assay showing that Claudin 6 MAbs bind to human Claudin 6 preferentially over other Claudin proteins. Human embryonic kidney 293T (HEK-293T) cells were transiently transfected with DNA for the indicated Claudin protein or empty vector along with GFP (pUC) for 22 hours.

Binder	Binding Reactivity (% WT) (T33A)	Binding Reactivity (% WT) (A153S)	Binding Reactivity (% WT) (N38A)	Binding Reactivity (% WT) (Y67A)	Binding Reactivity (% WT) (P74A)	Binding Reactivity (% WT) (V152A)	Binding Reactivity (% WT) (E154A)	Binding Reactivity (% WT) (Q78A)	binding result (Claudin 3)
B1	116	113	86	28.8	147	58.2	134	144	no binding (tested: log [mAb] about -7.2 M)
B2	22.8	24	22.4	97.2	37.5	129	4	151	no binding (tested: log [mAb] about -7.2 M)
